The values below are quoted from earlier work in patent US20100120660A1, “HIGHLY CONCENTRATED INSULIN SOLUTIONS AND COMPOSITIONS” (priority 2007, published 2010).

For porcine insulin, where the note is “acidic pH”, the “stability of insulin in highly concentrated solution” value is “not stable due to deamidation and polymerisation”. The “concentration of stable insulin solutions” value (comprising zinc, neutral pH) is “up to 6 mM”.
